{"source": "patent US20220402980A1", "about": "(OSPEDALE SAN RAFFAELE S R L, published 2022)", "binders": {"B1": {"name": "peptide 3 (peptide)", "peptide": "FETLRGDERILSILR-NH2", "notes": "Made by Fmoc-SPPS on a Rink-amide resin; also called compound 3"}, "B2": {"name": "peptide 1 (CgA-derived peptide, residues 39-63), synthetic (peptide)", "peptide": "FETLRGDERILSILRHQNLLKELQD", "notes": "Synthetic peptide bought from Biomatik; no terminal modification is stated for it; also called compound 1"}, "B3": {"name": "recombinant 13C/15N peptide 1 (peptide)", "peptide": "FETLRGDERILSILRHQNLLKELQD-{hSer(lactone)}", "modifications": "also: 13C/15N isotope labelled", "notes": "Used in the 2D-STD NMR experiments; also called recombinant peptide 1; 15N labelled peptide 1"}}, "key": {"[1]": {"target": "T1, wild-type human integrin α5β1 (octyl β-D-glucopyranoside preparation) (human, UniProt P08648 42-1049; P05556 21-798)", "T1 construct": "From Immunological Sciences; also called a5p1; asp1", "T1 sequence (P08648 42-1049, chain 1 of 2)": "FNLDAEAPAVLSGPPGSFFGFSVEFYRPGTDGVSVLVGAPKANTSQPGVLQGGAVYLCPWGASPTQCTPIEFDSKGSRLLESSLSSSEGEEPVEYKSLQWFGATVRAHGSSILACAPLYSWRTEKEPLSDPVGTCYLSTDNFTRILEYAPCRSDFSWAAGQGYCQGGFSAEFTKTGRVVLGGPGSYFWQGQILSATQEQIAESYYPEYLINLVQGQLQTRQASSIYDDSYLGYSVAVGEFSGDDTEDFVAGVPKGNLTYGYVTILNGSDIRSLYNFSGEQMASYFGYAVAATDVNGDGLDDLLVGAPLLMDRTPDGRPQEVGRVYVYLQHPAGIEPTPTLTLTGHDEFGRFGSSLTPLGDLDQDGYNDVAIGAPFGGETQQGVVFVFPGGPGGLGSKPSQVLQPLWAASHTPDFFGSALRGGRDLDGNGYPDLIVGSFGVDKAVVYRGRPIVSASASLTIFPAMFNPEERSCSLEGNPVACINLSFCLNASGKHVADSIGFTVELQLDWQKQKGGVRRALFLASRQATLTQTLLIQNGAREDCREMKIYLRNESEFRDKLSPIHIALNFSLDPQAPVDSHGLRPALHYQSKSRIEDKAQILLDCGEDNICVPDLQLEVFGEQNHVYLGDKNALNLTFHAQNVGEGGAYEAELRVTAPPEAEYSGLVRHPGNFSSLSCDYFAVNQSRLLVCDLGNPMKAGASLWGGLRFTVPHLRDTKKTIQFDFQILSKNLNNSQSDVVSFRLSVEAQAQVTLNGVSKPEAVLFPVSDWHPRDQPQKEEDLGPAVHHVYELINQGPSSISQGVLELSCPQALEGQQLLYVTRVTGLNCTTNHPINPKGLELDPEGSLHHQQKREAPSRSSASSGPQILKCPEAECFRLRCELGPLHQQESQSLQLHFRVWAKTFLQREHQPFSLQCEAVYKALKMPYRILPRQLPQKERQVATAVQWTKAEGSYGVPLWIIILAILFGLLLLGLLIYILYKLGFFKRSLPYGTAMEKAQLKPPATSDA", "T1 sequence (P05556 21-798, chain 2 of 2)": "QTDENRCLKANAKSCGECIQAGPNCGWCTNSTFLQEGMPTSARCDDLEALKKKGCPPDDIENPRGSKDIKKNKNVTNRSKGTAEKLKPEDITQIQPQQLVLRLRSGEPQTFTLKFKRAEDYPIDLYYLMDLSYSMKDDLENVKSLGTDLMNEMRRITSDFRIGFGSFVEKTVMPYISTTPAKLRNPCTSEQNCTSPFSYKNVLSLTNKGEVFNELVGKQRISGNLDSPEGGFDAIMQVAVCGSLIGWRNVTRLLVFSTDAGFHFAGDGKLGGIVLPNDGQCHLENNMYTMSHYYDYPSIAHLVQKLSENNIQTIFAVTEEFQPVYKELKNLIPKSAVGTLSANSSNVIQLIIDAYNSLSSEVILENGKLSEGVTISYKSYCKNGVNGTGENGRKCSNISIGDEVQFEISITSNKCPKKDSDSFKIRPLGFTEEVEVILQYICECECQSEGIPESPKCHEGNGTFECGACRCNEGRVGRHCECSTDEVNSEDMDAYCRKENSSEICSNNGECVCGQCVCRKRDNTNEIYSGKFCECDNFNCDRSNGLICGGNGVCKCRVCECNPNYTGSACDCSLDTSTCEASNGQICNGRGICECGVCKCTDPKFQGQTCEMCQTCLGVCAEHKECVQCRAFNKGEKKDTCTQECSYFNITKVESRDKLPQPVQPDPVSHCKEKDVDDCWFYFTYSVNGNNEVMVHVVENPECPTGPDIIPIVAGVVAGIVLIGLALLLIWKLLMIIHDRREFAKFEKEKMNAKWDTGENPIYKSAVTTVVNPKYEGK", "assay": "competitive binding assay on α5β1-coated plates, isoDGR/STV-HRP probe"}, "[2]": {"target": "T2, αvβ8 integrin (purified, coated on microtiter plates) (UniProt P06756 31-992; P26012 43-684)", "T2 construct": "The Reagents section names no source for αvβ8; also called avs8", "T2 sequence (P06756 31-992, chain 1 of 2)": "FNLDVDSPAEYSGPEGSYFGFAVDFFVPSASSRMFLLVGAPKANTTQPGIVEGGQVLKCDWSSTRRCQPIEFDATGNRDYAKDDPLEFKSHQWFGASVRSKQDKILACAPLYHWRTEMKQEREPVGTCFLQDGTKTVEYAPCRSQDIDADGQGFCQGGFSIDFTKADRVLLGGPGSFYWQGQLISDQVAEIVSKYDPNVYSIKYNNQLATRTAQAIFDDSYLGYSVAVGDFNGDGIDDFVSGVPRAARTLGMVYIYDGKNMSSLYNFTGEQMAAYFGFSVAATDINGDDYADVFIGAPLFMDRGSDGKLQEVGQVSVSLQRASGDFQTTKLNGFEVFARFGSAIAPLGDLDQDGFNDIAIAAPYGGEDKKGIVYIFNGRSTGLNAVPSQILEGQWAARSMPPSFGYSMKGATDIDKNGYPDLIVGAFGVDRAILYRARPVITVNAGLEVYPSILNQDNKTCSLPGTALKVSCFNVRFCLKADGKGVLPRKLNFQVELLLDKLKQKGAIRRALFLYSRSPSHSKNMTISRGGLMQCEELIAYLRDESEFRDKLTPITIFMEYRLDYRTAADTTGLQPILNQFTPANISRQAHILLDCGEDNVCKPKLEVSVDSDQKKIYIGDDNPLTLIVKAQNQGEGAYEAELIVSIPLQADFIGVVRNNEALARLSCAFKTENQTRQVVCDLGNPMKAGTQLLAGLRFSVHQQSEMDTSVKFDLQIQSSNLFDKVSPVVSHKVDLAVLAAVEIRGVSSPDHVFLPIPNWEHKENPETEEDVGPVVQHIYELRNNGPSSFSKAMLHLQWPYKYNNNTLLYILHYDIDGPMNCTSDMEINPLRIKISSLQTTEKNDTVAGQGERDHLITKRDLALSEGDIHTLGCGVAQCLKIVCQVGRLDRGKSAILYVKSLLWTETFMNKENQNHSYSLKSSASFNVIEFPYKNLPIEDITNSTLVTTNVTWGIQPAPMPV", "T2 sequence (P26012 43-684, chain 2 of 2)": "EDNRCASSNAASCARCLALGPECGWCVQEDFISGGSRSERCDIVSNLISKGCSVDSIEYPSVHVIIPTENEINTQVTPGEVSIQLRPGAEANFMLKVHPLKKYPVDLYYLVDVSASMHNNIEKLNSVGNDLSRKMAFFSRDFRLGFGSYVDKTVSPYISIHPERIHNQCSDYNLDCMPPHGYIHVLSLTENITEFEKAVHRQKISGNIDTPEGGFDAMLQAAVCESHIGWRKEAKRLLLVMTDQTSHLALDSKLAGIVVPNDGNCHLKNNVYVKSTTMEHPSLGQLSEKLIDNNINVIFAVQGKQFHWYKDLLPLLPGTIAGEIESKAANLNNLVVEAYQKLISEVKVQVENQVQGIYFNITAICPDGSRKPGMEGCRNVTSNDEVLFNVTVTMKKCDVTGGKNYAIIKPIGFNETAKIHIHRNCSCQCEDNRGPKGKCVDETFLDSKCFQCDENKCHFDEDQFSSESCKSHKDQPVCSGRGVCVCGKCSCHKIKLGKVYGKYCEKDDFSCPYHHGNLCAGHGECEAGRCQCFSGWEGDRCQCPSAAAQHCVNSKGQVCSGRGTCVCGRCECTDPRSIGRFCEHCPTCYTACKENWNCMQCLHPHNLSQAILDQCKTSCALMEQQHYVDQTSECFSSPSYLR", "assay": "competitive binding assay on αvβ8-coated plates, isoDGR/STV-HRP probe"}, "[3]": {"target": "T3, recombinant human αvβ6 extracellular domain (R&D Systems) (human, UniProt P06756 31-992; P18564 22-709)", "T3 construct": "extracellular domain; Bought; also called recombinant extracellular αvβ6; purified αvβ6", "T3 sequence (P06756 31-992, chain 1 of 2)": "as the sequence (P06756 31-992, chain 1 of 2) above", "T3 sequence (P18564 22-709, chain 2 of 2)": "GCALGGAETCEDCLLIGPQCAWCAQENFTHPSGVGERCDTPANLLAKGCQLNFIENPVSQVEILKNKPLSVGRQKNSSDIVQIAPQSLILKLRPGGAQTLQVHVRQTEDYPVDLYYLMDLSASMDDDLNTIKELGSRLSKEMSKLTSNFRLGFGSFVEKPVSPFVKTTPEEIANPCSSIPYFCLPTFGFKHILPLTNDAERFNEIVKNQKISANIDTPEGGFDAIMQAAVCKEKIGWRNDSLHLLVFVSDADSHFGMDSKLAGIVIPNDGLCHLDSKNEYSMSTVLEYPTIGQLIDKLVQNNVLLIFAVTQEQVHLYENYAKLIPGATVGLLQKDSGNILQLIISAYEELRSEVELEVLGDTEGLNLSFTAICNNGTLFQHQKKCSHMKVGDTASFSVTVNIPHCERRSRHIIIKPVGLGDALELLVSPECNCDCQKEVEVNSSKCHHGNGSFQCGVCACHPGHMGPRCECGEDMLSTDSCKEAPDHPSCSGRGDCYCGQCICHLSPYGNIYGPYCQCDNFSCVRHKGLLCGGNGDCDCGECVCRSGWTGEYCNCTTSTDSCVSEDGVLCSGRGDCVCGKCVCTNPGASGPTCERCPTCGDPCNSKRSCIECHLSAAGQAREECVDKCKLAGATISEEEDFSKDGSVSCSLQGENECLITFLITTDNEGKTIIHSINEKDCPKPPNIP", "assay": "competitive binding assay on αvβ6-coated plates, isoDGR/STV-HRP probe"}, "[4]": {"target": "T4, wild-type human integrin αvβ3 (octyl β-D-glucopyranoside preparation) (human, UniProt P06756 31-1048; P05106 27-788)", "T4 construct": "From Immunological Sciences", "assay": "competitive binding assay on αvβ3-coated plates, isoDGR/STV-HRP probe"}, "[5]": {"target": "T5, wild-type human integrin αvβ5 (octyl β-D-glucopyranoside preparation) (human, UniProt P06756 31-1048; P18084 24-799)", "T5 construct": "From Immunological Sciences", "assay": "competitive binding assay on αvβ5-coated plates, isoDGR/STV-HRP probe"}, "[6]": {"target": "T3, recombinant human αvβ6 extracellular …", "assay": "competitive αvβ6 binding assay, isoDGR-HRP probe"}, "[7]": {"target": "T1, wild-type human integrin α5β1 (octyl …)", "assay": "direct binding to integrin-coated microtiter plates, one site specific binding fit"}, "[8]": {"target": "T5, wild-type human integrin αvβ5 (octyl …)", "assay": "direct binding to integrin-coated microtiter plates, one site specific binding fit"}, "[9]": {"target": "T3, recombinant human αvβ6 extracellular …", "assay": "direct binding to integrin-coated microtiter plates, one site specific binding fit"}, "[10]": {"target": "T4, wild-type human integrin αvβ3 (octyl …)", "assay": "direct binding to integrin-coated microtiter plates, one site specific binding fit"}, "[11]": {"target": "T2, αvβ8 integrin (purified, coated on …)", "assay": "direct binding to integrin-coated microtiter plates, one site specific binding fit"}, "[12]": {"target": "T3, recombinant human αvβ6 extracellular …", "assay": "direct binding to integrin-coated plates, near-infrared fluorescence"}, "[13]": {"target": "T2, αvβ8 integrin (purified, coated on …)", "assay": "direct binding to integrin-coated plates, near-infrared fluorescence"}, "[14]": {"target": "T3, recombinant human αvβ6 extracellular …", "assay": "competitive binding assay on αvβ6-coated plates, isoDGR/STV-HRP probe", "remark": "listed apart in the source"}, "bovine serum albumin": {"target": "T6, bovine serum albumin (bovine, UniProt P02769 25-607)", "T6 construct": "Negative control in the STD NMR experiments; also called BSA", "T6 sequence (P02769 25-607 limits assumed)": "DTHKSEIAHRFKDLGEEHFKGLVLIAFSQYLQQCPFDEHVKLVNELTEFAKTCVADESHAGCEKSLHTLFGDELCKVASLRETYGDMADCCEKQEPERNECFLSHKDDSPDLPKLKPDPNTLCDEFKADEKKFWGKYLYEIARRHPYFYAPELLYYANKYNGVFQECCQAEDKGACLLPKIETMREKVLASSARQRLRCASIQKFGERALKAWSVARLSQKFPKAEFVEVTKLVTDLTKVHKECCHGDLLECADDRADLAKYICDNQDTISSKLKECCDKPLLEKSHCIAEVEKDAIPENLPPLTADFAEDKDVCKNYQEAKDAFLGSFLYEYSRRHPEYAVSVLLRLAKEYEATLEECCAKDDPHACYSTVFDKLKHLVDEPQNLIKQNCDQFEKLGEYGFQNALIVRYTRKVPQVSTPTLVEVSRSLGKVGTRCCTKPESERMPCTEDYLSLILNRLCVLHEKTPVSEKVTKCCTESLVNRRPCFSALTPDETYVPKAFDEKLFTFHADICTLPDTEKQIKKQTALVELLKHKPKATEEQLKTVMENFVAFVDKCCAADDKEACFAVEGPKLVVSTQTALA", "assay": "2D-STD-1H-15N-HSQC NMR, negative control"}, "[15]": {"target": "T3, recombinant human αvβ6 extracellular …", "assay": "STD NMR, 0.5 mM peptide with 4 µM αvβ6"}}, "note": "Like-named read-outs stand apart in the source and are kept apart here. *1 amine or outer side, *2 acyl side, *3 side chain or, on linkers, in order; H or OH if unused. Bridges are numbered along the chain shown (N, C = ends). Where no end group is shown, it is not given here. [ ]: non-standard residue; d: D form. The star is where a group is joined. maleimide‑NOTA = 1,4,7-triazacyclononane-1,4-bis-acetic acid-7-maleimidoethylacetamide; Biotin = O=C1N[C@H]2[C@H](CS[C@H]2CCCCC(=O)*)N1; Lys(N3) = [N-]=[N+]=NCCCC[C@H](N)C(=O)O; βAsp = O=C(O)[C@H](CC(=O)[*:2])N[*:1]; hSer(lactone) = O=C1OCC[C@@H]1N*; Pra = C#CC[C@H](N)C(=O)O", "data": [{"binder": "B1", "values": [{"measurement": "Ki", "setting": "[1]", "result": 10100, "unit": "nM"}, {"measurement": "Ki", "setting": "[2]", "result": 31200, "unit": "nM"}, {"measurement": "Ki", "setting": "[3]", "result": 277, "unit": "nM"}, {"measurement": "Ki", "setting": "[4]", "result": 1250, "unit": "nM"}, {"measurement": "Ki", "setting": "[5]", "result": 2040, "unit": "nM"}]}, {"binder": "C(maleimide‑NOTA)FETLRGEERILSILRHQNLLKELQD (Negative control conjugate)", "note": "[NOTA-2a (peptide 2a coupled to maleimide-NOTA)]", "values": [{"measurement": "binding result", "setting": "[6]", "result": "no binding"}]}, {"binder": "B2", "values": [{"measurement": "Ki", "setting": "[1]", "result": 9210, "unit": "nM"}, {"measurement": "Ki", "setting": "[2]", "result": 7660, "unit": "nM"}, {"measurement": "Ki", "setting": "[3]", "result": 15.5, "unit": "nM"}, {"measurement": "Ki", "setting": "[4]", "result": 2190, "unit": "nM"}, {"measurement": "Ki", "setting": "[5]", "result": 3600, "unit": "nM"}]}, {"binder": "Ac-C[βAsp]GRCGVRSSSRTPSDK(Biotin)Y (also: in complex with streptavidin-peroxidase conjugate)", "values": [{"measurement": "Kd", "setting": "[7]", "result": 1.3, "unit": "nM"}, {"measurement": "Kd", "setting": "[8]", "result": 1.7, "unit": "nM"}, {"measurement": "Kd", "setting": "[9]", "result": 1.4, "unit": "nM"}, {"measurement": "Kd", "setting": "[10]", "result": 1.3, "unit": "nM"}, {"measurement": "Kd", "setting": "[11]", "result": 1.6, "unit": "nM"}]}, {"binder": "C(maleimide‑IRDye 800CW)FETLRGEERILSILRHQNLLKELQD (RGE control conjugate)", "note": "[2a-IRDye (peptide 2a coupled via Cys to maleimide-IRDye 800CW)]", "values": [{"measurement": "binding result", "setting": "[12]", "result": "no binding (tested: range 0.01-100 nM)"}, {"measurement": "binding result", "setting": "[13]", "result": "no binding (tested: range 0.01-100 nM)"}]}, {"binder": "CFETLRGDLRILSILR[Pra]QNL[Lys(N3)]KELQD-NH2 (triazole 17-21, also called CgA38-63-derived peptide)", "note": "[peptide 5a]", "values": [{"measurement": "Ki", "setting": "[14]", "result": 1.5, "unit": "nM"}]}, {"binder": "B3", "values": [{"measurement": "binding result", "setting": "bovine serum albumin", "result": "no binding"}, {"measurement": "binding result", "setting": "[15]", "result": "binds"}]}]}
